Measured values published in US20210040228.

Test system: D11-CD8stk-IL2Rg_A5-Hinge-IL2Rb
Sequence (chain, as listed by the source, chain 1 of 2): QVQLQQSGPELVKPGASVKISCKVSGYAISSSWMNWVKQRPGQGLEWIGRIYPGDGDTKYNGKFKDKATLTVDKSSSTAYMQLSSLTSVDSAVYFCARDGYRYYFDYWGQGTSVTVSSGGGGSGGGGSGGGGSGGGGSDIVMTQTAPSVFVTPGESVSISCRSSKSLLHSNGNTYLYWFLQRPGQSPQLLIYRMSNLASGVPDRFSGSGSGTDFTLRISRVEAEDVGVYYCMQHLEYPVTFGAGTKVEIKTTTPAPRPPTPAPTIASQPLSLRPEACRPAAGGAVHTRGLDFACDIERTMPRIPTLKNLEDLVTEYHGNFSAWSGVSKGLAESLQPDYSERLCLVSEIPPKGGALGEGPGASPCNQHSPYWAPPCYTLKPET
Sequence (chain, as listed by the source, chain 2 of 2): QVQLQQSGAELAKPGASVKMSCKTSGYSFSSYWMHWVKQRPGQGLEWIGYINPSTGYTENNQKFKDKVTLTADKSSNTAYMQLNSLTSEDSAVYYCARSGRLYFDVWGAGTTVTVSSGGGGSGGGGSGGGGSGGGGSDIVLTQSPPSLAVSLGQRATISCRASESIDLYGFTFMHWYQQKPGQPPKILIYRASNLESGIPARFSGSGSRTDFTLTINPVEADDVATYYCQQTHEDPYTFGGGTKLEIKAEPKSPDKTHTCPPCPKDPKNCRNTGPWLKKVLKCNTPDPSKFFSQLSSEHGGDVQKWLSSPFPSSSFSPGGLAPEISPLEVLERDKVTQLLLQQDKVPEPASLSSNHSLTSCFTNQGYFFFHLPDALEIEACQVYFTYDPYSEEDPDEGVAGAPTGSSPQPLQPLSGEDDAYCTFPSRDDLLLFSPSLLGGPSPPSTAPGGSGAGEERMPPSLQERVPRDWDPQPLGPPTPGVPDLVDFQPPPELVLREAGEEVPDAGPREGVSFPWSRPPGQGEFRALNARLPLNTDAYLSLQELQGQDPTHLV

Which “phosphorylation of Y694 of STAT5 (phosphoflow), 500 ng/mL PSA for 1 or 4 hours” value does the source give for prostate-specific antigen (PSA) here?
Its value is “In the cells expressing the PSA CCR, the presence of PSA lead to increasing STAT5 phosphorylation with time”.
